Laboratory results reported in patent US6881575.

Assays:
[1] = molecular target: T1, Cdc25C peptide (amino acid 211 to 221 of Cdc25C; LYRSPSMPENL)
T1 chain: LYRSPSMPENL

[2] = molecular target: T2, GST-Cdc25C (amino acid 200-256)
T2 sequence (P30307 whole entry, looked up): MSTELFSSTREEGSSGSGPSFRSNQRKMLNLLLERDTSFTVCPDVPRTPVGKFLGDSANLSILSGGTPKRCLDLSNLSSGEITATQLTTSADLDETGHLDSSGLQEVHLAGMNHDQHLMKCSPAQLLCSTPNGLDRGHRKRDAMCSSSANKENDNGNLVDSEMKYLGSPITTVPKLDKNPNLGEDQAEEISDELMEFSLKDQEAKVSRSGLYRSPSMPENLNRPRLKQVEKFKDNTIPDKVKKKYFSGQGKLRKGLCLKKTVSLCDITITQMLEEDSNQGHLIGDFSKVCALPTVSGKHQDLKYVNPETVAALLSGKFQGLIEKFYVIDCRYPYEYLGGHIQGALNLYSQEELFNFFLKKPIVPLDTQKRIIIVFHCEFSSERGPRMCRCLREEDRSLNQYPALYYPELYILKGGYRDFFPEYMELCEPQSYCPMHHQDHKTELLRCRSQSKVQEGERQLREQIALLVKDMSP

TAT-S216A peptide = molecular target: T3, TAT-S216A peptide
T3 chain: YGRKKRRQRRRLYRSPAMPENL

Protein	in vitro phosphorylation of the Cdc25C peptide by Chk2/HuCds1 [1]	phosphorylation of the peptide by hChk1 (TAT-S216 peptide)	in vitro phosphorylation of the Cdc25C peptide by hChk1 [1]	in vitro phosphorylation of GST-Cdc25C by immunoprecipitated hChk1 (32P-ATP, SDS-PAGE autoradiogram) [2]	phosphorylation of the peptide by hChk1 (TAT-S216A peptide)
LYRSPSMYENL [c-myc-tagged Chk2/HuCds1]	phosphorylation of Cdc25C peptide (residues 200-256) (SEQ ID NO:1) mediated by hChk1 (SEQ ID NO:3) and Chk2/HuCds1 (SEQ ID NO:4)	–	–	–	–
LYRSPSMFENL [HA-tagged hChk1]	–	TAT-S216 but not TAT-S216A was efficiently phosphorylated by hChk1	phosphorylation of Cdc25C peptide (residues 200-256) (SEQ ID NO:1) mediated by hChk1 (SEQ ID NO:3) and Chk2/HuCds1 (SEQ ID NO:4)	hChk1 (SEQ ID NO:3) was capable of phosphorylating a Cdc25C protein (residues 20-256) (SEQ ID NO:1) fused to GST	TAT-S216 but not TAT-S216A was efficiently phosphorylated by hChk1
